In paper PMC11927175, “Global profiling of CPL3-mediated alternative splicing reveals regulatory mechanisms of DGK5 in plant immunity and phosphatidic acid homeostasis” (Genome Biology, 2025):

How the values were obtained:
[1] = target: T1, glutathione S-transferase (GST)-tagged BIK1 (BOTRYTIS-INDUCED KINASE 1) (Arabidopsis thaliana (Mouse-ear cress), UniProt O48814); experiment: GST pull-down
T1 chain: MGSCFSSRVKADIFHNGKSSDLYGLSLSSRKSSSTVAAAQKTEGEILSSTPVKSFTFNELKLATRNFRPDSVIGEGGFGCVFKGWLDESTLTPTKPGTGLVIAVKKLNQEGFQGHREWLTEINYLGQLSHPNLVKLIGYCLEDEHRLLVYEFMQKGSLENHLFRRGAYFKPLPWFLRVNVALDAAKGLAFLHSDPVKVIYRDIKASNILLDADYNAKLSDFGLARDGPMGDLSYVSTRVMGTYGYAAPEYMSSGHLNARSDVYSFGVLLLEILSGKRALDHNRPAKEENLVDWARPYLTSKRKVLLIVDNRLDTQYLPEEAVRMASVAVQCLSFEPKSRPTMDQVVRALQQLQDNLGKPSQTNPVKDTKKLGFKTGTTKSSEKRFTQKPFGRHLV

[2] = target: T2, six histidine-tagged DGK5β (…OL KINASE 5, constitutive full-length isoform) (Arabidopsis thaliana, UniProt Q9C5E5 1-509); experiment: pull-down; GST-BIK1 immobilised on glutathione agarose beads, blocked with BSA, incubated with 2 μg HIS-DGK5β or HIS-DGK5α in 300 μl incubation buffer (20 mM Tris-HCl pH 7.5, 100 mM NaCl, 0.1 mM EDTA, 0.2% Triton X-100) at 4 °C for 1 h; washed with 300 mM NaCl buffer; immunoblot with α-HIS and α-GST; conditions: both partners purified
T2 construct: …OL KINASE 5, isoform DGK5β, Arabidopsis thaliana, AT2G20900; printed size 57.4 kDa; Ser506 lies in the CBD; also called HIS-DGK5β; source: E. coli BL21, purified (Ni-NTA agarose)
T2 sequence (looked up): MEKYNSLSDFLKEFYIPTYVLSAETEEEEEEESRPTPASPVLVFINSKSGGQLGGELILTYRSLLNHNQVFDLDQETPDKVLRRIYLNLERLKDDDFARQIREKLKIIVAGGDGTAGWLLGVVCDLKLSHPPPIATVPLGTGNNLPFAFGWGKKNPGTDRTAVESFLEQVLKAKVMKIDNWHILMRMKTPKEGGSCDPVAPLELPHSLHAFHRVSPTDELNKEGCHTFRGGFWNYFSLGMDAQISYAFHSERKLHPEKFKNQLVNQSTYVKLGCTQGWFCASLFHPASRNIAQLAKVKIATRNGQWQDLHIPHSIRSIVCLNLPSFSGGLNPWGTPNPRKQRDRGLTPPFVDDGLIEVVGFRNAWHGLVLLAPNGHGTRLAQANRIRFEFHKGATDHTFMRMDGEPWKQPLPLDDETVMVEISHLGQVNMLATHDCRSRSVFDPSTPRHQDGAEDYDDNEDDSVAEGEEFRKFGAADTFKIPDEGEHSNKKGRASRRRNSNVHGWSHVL

B1: six histidine-tagged DGK5β (…OL KINASE 5, constitutive full-length isoform) (protein)
chain: MEKYNSLSDFLKEFYIPTYVLSAETEEEEEEESRPTPASPVLVFINSKSGGQLGGELILTYRSLLNHNQVFDLDQETPDKVLRRIYLNLERLKDDDFARQIREKLKIIVAGGDGTAGWLLGVVCDLKLSHPPPIATVPLGTGNNLPFAFGWGKKNPGTDRTAVESFLEQVLKAKVMKIDNWHILMRMKTPKEGGSCDPVAPLELPHSLHAFHRVSPTDELNKEGCHTFRGGFWNYFSLGMDAQISYAFHSERKLHPEKFKNQLVNQSTYVKLGCTQGWFCASLFHPASRNIAQLAKVKIATRNGQWQDLHIPHSIRSIVCLNLPSFSGGLNPWGTPNPRKQRDRGLTPPFVDDGLIEVVGFRNAWHGLVLLAPNGHGTRLAQANRIRFEFHKGATDHTFMRMDGEPWKQPLPLDDETVMVEISHLGQVNMLATHDCRSRSVFDPSTPRHQDGAEDYDDNEDDSVAEGEEFRKFGAADTFKIPDEGEHSNKKGRASRRRNSNVHGWSHVL
binding result [1]: binds

B2: glutathione S-transferase (GST)-tagged BIK1 (BOTRYTIS-INDUCED KINASE 1) (enzyme, Arabidopsis thaliana, UniProt O48814 1-395, looked up)
chain: MGSCFSSRVKADIFHNGKSSDLYGLSLSSRKSSSTVAAAQKTEGEILSSTPVKSFTFNELKLATRNFRPDSVIGEGGFGCVFKGWLDESTLTPTKPGTGLVIAVKKLNQEGFQGHREWLTEINYLGQLSHPNLVKLIGYCLEDEHRLLVYEFMQKGSLENHLFRRGAYFKPLPWFLRVNVALDAAKGLAFLHSDPVKVIYRDIKASNILLDADYNAKLSDFGLARDGPMGDLSYVSTRVMGTYGYAAPEYMSSGHLNARSDVYSFGVLLLEILSGKRALDHNRPAKEENLVDWARPYLTSKRKVLLIVDNRLDTQYLPEEAVRMASVAVQCLSFEPKSRPTMDQVVRALQQLQDNLGKPSQTNPVKDTKKLGFKTGTTKSSEKRFTQKPFGRHLV
notes: BOTRYTIS-INDUCED KINASE 1 (BIK1), receptor-like cytoplasmic kinase, Arabidopsis thaliana, AT2G39660; also called GST-BIK1; source: E. coli BL21, purified (glutathione agarose)
binding result [2]: binds
